Measurements reported in the DeepSol protein solubility set.

Assay: soluble on expression in E. coli; label from the status in PepcDB or PDB records

Row | Sequence | soluble on expression in E. coli
1 | MSLNRLSIPYSNKSLDYYFFVIQEASVKRAVLARSGEFQATNANFDNTRQLEQWQSLLLSRPSAIISDPIDSQAIVSAIRRYNREKIPVGIIDTPADGGDVAITVSFDNFQGGVMAAEEIVNRLITRYGRPKGTVLNCYGALASVAWRLRKEGMDSVFAKYPGITYLARPTDGQLEKMLSVTLSTLSEYPDLDAVHAPSDSPSRGIVTALQQKGRWKKIGEAGHVIFVNIDGEPIALKWIQDGYMDACISQDPVAYGEIAVDMIVKHALKGEAVPLGTYQDKKYFWESGEIVQGKTGPTLIIPAFVINRDNVQDPRHWASVAEKTWGIPEGHHHHHH | soluble
2 | MRRVFSSQAIQTAIEKSLPDLQKIVGNSSVRTQESVRRQFARDESHFIAPPPAVVLEPTNVEQVSEILKLCNDRAIPVVPFGTGTGLEGGSMSTLGGICISTQQIIGDPVLREQDFVCSVKPSTTRIALNDAIKNSGLFFPVDPGADASVCGMVATSASGTNAIRYGTMKENVVNLEVVLADGTIIDTKGKGRCPRKSSAGFNFTELFVGSEGTLGIITEATVKVHPRPQFLSAAVCSFPTVHEAASTVVEVLQWNIPVARIELLDTVQIQACNSYSSLNLRESPTLFIEFHGSNEKEVADQTSAVEDICKSHEALDFDSGASPDKRATLWKARHNAYYAALAMRTGARGFTTDVCVPISKLADVISETRSDLDEHEILGTVVGHVGDGNFHVILPTIEEDKTEHRKIQSFSDRLVRRALAADGTCTGEHGIGLGKRKYLREELGENTVRLMHTIKHALDPNNIMNPGKVLPEL | soluble
3 | MGSDKIHHHHHHMKTLKGPGIFLAQYIGDQAPFNTLENLAQWAAGLGFKALQIPCNHPHIFNLATAADSQTYCDEVKGLLAQHGLTISELSTHLEGQLVAVHPAYDDAFDDFAPPAYRRNPQARQQWAISAIKQAAKASSRLGLNAHATFSGALAWPYFYPWPPRKEALIQEAFKELGRLWTPILDCFDEHGVDVCYELHPGEDLHDGVTFERFLDVVNHHPRANILYDPSHMHLQQMDYLGFIDRYHARIKAFHVKDAEFTPSSKSGVYGGYQSWAERAGRFRSPGDGQIDFGAIFSKLAQYDYDGWAVLEWECCLKDSNCGAKEGAAFIDRHIIPVAQRAFDDFAATSDDRPLVRKMLGLKEEDAE | not soluble
4 | MLFSKETLKSFAQSKGISNIDDDALRVLSQDLEYRIKEVCQEGSKFMVGSKRTKLSIDDINYALTSRNVDPLFGYDPQESLVFRGLPSNVYYVPDEEIDLEEYLDRPLPKVPLRVSIQSHWLAIEGVQPQIPYNPILLEKPVAKKDTLGTYQEEAELKSQNKHMLTKELGMYFDKVIQAMESDEQTAMECLHNESGIQQLVPYFVHHFNEQIVKNIKNKEKLMTVVMVYSSLLKNKYIFVDPYLHQILPSLITCVIGKNVDDDVRKVAADVVKYVFSNFSSSYKTLAPRIINTLSKAWLDREKTESTQYGALFCLSILSKHVVETVIKPKADYYVREINNPRVVGLLKDILQSNGL | soluble
5 | MSSTQTDYRLSDDLLGPVLAILDAYIDPYLAKGLVSAGCVNKLAIEGKRLQLGLVYPYPCMTQYRDTVMALTNKLAVLDAIDEVECEIDFQPKVYSAIASIAPIANVKQVIAVASGKGGVGKSTTAVNLALALAAEGAQVGILDADIYGPSVPLMLGIPNFRPVSPDGKHMTAASAYGIAAQSIGFMLSGDEAAVWRGPMAAGALAQLLNETQWPELDYLVVDMPPGTGDIQLTLSQKVPVSGAVIVTTPQDIALADAKKGITMFQKVNIPVLGIVENMSFHLCPECGHKEHPFGTHGGSKMAERYQVPLLGALPLHINIREAMDVGAPTVVAEPDSEVAALYREIARKVGAELALKQSQKTVSISVSDDELEHHHHHH | soluble
6 | GASKAFYSAGDKLFQPGDDAVASMQTYSVAQFLQPFTLNPAKASSDYLGKWVKVRGVIVDIRRKSGIAGSYYFIVTMRDEQNKTDKRLTFNFGSHNSADVEALSNGSVATIVGQVHQVQDSTIPTLQNPKVVK | soluble
7 | MGSDKIHHHHHHMSSKPIAPLHGRTIIMTRAQEQQSEARSQLHALGSNVLDLPALVIGPPDDWQPLDDALADIKTFHWLVFSSANGVRAVEERLQRIGQSLANRPKGLKLAAVGRKTAQYLEHLGAAVDFVPPNFVADSLINHFPVSGFGLKMLLPRVQSGGRTILGEAFRESGAHVIEVAAYESRCPEAIPDDTATALANSNVDAIAFSSGKTAAHTASLLSHRFGSDWLQQLETVKVISIGPQTSLSCEQHFGRVDQEADPHNLEGLISACVKACRSEAETCPPGSR | not soluble
8 | MAINPFFTLVQRPVQSIEMAPPKPSAKGAKKAAKTVTKPKDGKKRRHARKESYSVYIYRVLKQVHPDTGVSSKAMSIMNSFVNDVFERIAAEASRLAHYNKRSTISSREIQTAVRLILPGELAKHAVSEGTKAVTKYTSSK | not soluble
9 | MSLTYQFMQPYTFKNGVTLKNRMVMSPTTTMSSFYDGHVTNDEIKFYDVRAGGPGMIIGEVANVIASGKGFEGELSIADDGDIDGLSRLANAMKRGGTKAILQIFHAGRKSNDSILRGEQPVSASAVKAVFPPDSQTPRELTAAEIDEIIVAFGEATRRAIAAGFDGVELHGANTYLLQQFFSPNSNRRTDKWGGDRDARMGFAKAVIASSQQAIDTYADRPFLLGYRISPEEIETPGIRLADSLAFVDMLGDSTVDYVHTSMGSAHRTSLNDKTDHEPILKQLVQQLAGRKPLIGVGSVEKPADAEAVLEMGADLVAMGREFIREPQWVEKIVDGDEASIRYQISPSELDELAIPRAMQDYLKGAFYSVMHFTTDPSVAVDYQNEGHHHHHH | soluble
10 | MVNGSLGSRETETSAVKMGKDNKEHKESKESKTVDNYEARMPAVLPFAKPLASKKLNKKVLKTVKKASKAKNVKRGVKEVVKALRKGEKGLVVIAGDISPADVISHIPVLCEDHSVPYIFIPSKQDLGAAGATKRPTSVVFIVPGSNKKKDGKNKEEEYKESFNEVVKEVQAL | soluble
11 | LSKDILQLVGGEENVQRVIHCMTRLRFNLHDNAKADRSQLEQLPGVMGTNISGEQFQIIIGNDVPKVYQAIVRHSNLSDEKSAGSSSQKKNVLSAVFDVISG | not soluble
12 | MGSDKIHHHHHHAACEKDPDMDKLDNDYLVYTNYDKKADFKQFSTYYIPDSVLVIGDKKDPEYWKGEAAEAIINAYKENLNSKGFTYTDNKDAADLGIQVSYVQSTYYFTDYGQPEWWWNYPGYWDAPYWGNWGGWYYPYVVNYSITTNSFLTEIMNLKAPEGEKQKLPVLWSSFLSGPASYSGKVNQTLVVRAINQSFAQSPYLTNK | not soluble
13 | MSAISPDTKSFAIPTLADEGSSSKPASSLDLPKHESIRFKPIKTLASRIDGSEYYDEASMEKVMEMLEIGRTDEAVAYADTLYSNIIDDEQQDIVTIAEYVKILVVLRQWRRISHIIARGNYHQIHIVFAYYAATALFQRKLYEDVAELSVGHLLPSNGQIGPLPVRTLSQVTGRYVEEERMKYSFANMAELDNSSKKLRMVPALMITIAESFLKLMNRDAAMICINYALSLDNTTLHVERLMAKYNLVEPAMWEKYRKVRNEQLKLHEGNHDPRILMERAQRAYEMGRFRETKKITDELFDLFGPHPECIILRIHCLTMLKDSRSLLELGHQLVSDDPHIPLPWYCVAMYYYSIGANSRARNFISKCTMMDSTFAEGWVAFGHILHYEVEHEQSMSCYYRASKLVDKSSEPFLYTSLQYSTHSQKLSKKFMGEAVARAPNDPLIRHEEACVAYTAKSYAEADILFRTVLYMVTETDEIIPIEEVLKKKIDDFWHPMLNNIGHIARRQGRLNEAIMFYQKAIRMEPKFVDAIASTALCYAVLGNIDKATEFFNKALAIDPFNETIRQCLSKMIQASKESYSVDQQTLPPAYNSETYFGAQEILPYCAIRKPRNDGFVVPSIVSSSQPFMSMLRDRLRRQDQLYAQEPDNDAGNQV | not soluble
14 | SKGYFETNRIQHIIVDEAQNFHTEDGNWCEKAKGITQGGKACPRMFWIFLDYFQTSHLKESGLPDFELQYPKEELTQVVRNGDKIAEFLQQELGKIRDNPPCSIPRASLNIVHEFKWSQSISGTLKIKYLTSEKMVSYVANKCDVFLSKGYSPQDIAVLFSTDREKKAYEHMFLREMRKKRRASQMNDTSVCHSNMFDRIRRFSGLERSIVFGINPIATEQPISHNLLICLASRAMKYLYILYALTPEGQSSTVAC | soluble
15 | MLPVSCKLPNMGTYQSYLSSSMPAGCVLPVGGNFEILLHYYLLNYAKKCHQSEETMVSMIIANALLGIPKVLYKSKTGKYSFPHTYIRAVHALQTNQPLVSSQTGLESVMGKYQLLTSVLQCLTKILTIDMVITVKRHPQKVHNQDSEDELLEHHHHHH | not soluble
16 | MAAQVEIEDQESVTNLDNGEIINPISDNAPNFSGDATILLREATFEHNLIKNCFLSGMGSFATETTIVTVRKILTQRLITTKAKFAVFKLFTEAMKRKNNGYANIRYGWYSGSKEEIDRVITYGFSNREIKKVENDVGSHGVGIHLVHHRYSLAAALVGEGDEEGIKNILLCRVILGKPEQIVTGSKQSYPSSNQFDSGVDNLENPRKYVIWSCNMNSYILPTYIVSFKSHLLRGLIGRARSPCVSFSVLMSILSKSLDAARMNLILTSYDDFRKRKLRREQLVRKIREVVGDNLLFKILKNQRR | soluble
17 | GPGSMSKQKNVEINYDEVDETTGFKAAEMFVWLKFEESYLQKPEDEREADVDAWADTFCEEMEGEGMNYDRNFVRSVCTLGIYAGLRDEFQQRTGSGKAIYANGDRYDGEFFEGKKHGRGRYIFVSLGKSECDRIVEKELQKLGDVVAGENFVKAVADRYKIGCHIISYIIEYGFHPCYHGDYVRGKRVGRGLMKNKDGTVYKGEFLENKREGRGMFFYLNGDIYSGNWKNGRKHGYGTYHFVGGNEYRGMWNDGVFTHGQWIFPDGVYYEGHFNKKNRPCDEAASMHYPALKMAQTGTFKRGTWAPTSALEVCEETPVDGMTWTD | soluble
18 | MSLARFFQPKKHSTLDTKHQPVTIERLDHQGSGLAFLHKKPLFVDGALPGEEVLIQLTENKSKYARGQLIKVLKPSAERVAPFCAHYAQCGGCDLQHLDRAGQIHHKQQALSQLMVKFAGQSLALSAPVCSDDQGYRRRARLSLMWDKKTQQLQLGFRRKQSKAIVNVTHCPVLEPSLNALLPDLNALLSEWSQPERLGHVELVKGDNTRVLVLRHLGALIEQDQQRLTDFASQNQLTLYLMLEAGELQHVQGEAPYCEETGSRLSFLPSHFIQVNRAVNQHMVVQALNWLEVSPQERVLDLFCGLGNFTLPLAKQAQAVVGVEGVDEMVQHATHNAKLNQINNVAFYQANLEQDMTSASWAQQKFAKVLLDPARAGAEGIVDQLSALGAKRVVYVSCNPATLARDSQSLLSQGFRLEKLGMLDMFPHTSHLESMALFVKKGEGHHHHHH | soluble
19 | MGSDKIHHHHHHMAQIKPISGAEDRVLLAEALPLVSPFTLNVFPTNACNFKCSYCAQSLGAEALAATYGMDRGFMSLETMELIVEQSKAFAPYKLLSFMGHGEPLLNRDLPKMISLAARAGIAQRIEIITNASMLTHEYADELIDSGLTNLRVSLQGLDMESYRKICGVALDFDRFMERLVYFYTHKKKDMGLFVKIMDVSLPIGGAKEFYKLFNNICDRMYVENVQPVYHAVDVHSSNGSDLTRYDRYGNAHPPRTVCPLAFFSLAVWPNGDVQPCDAIYKPCVLGNVHNTNLREMWDSELLKQFRIRHLRGEKEIITGCSNCCAPDDVSHPLDALDDRKDEILCRLFG | not soluble
20 | MNIIDFRFRPNTEAILKGISSNPAFKGMCQSIDFNKMLPQTLEEVVEELDRHHVVKAVISGRDCETTYGAKSNNPSVIEFCHKFPDKFIGFAGLDPHKGMAALAEITHAVHEEGIKGAAIDPYLARIYVNDAKYYPIYAKCCELGIPLIIATGPGTLVPNAVIDHVAPRYIDFVARDFPELKIIASHGGYPWVNEMITVAQRNANVYLELSEYEFFPQSSAYIEAANSILSDKIMYASAHPFVDFKLALKNYEQLPLKPEVREKVMYKNAAKVLGLSDGTFSASKAMDAQEVQMIIENVIAQLSQRGLLANR | not soluble
